Assay: yeast display, Sf9 membrane polyspecificity reagent, FACS + sequencing; frameworks hold sequencing errors
How it was run: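 In a synthetic yeast display library (Saccharomyces cerevisiae BJ5465), nanobody expression was induced with galactose for 36–48 hours. FACS gates were set low and high (top ~1%) using anti-HA fluorescence for expression and streptavidin fluorescence for binding of the Sf9 membrane reagent. Each polyreactivity label is drawn from the gate of origin.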

## QVQLVESGGGLVLAGGSLRLSCAASGSIFDDNAMGWYIQAPGKERELVAANTVSTDTTYYADSVKGRFTISRDIAKNTVSLLMNSLKPEDTAVYYCAAEGPGYGPTGDFYWYTYYYWGQGTQVTVSS
  polyreactivity (PSR sort gate): low polyreactivity

## QVQLVESGGGLVQAGGSLRLSCAASGSTFCHYAMGWYRQAPGKERELVAAISWSGGSTSYADSVKGRFTISRDNAKNTVFLQMNSLIPEDTAVYYCNKRQEWFHFPYTRGYYWGQGTQVSVSS
  polyreactivity (PSR sort gate): low polyreactivity

## QVQLVESGGRLVQAGGSLRLICAASGLIFRAYAMGWYIQAPGKERELVAAISRNGGSTYYADSVKGRFTISRDNAKNTVYLQMNILKPEDTAGYYCNKVSRSSVYQDYYYWGQGTQVTVSS
  polyreactivity (PSR sort gate): high polyreactivity

## QVQLVESGGGLVQAGGSLRLSCAASGFIFRYYAMGWYIQAPGKERELVAAITISGTRTYYADSVKGRFTISRDNAKNTVYLQMNSLKPEDTAVYYCAAYTSVRPKLDYWGQGTQVTVSS
  polyreactivity (PSR sort gate): high polyreactivity

## QVQLVESGGGLVQAGGSLRLSCAASGSTFGYYAMGWYRQAPGKERELVAAISWSGTRTYYADSVKGRFTISRDNAKNTVYLQMNSLKPEDTAVYYCAVRISRPREYYYWGQGTQVTVSS
  polyreactivity (PSR sort gate): high polyreactivity

## QVQLVESGGGLVQAGGSLSLSCAASGRIFGRNAMGWYRQAPGKERELVAAISSSGGTYYADSVKGRFTISRDNAKNTVYLQMISLKPEDTAVYYCNDRVRTQQRWVDYWGQGTQVTVSS
  polyreactivity (PSR sort gate): high polyreactivity

## QVQLVESGGGLVQAGGSLRLSCAASGRTFGSNAMGWYRQAPGKERELVANIDGGGGTYADSVKGRFTISRDNAKNTVYLQMNSLKPEDTAVYYCATRWSGYDMDYWGQGTQVTVSS
  polyreactivity (PSR sort gate): low polyreactivity

## QVHLVESGGGLVQAGGSLRLSCAASGLTFHVYAMGWYRQAPGKERELVAAISWSGGSTYYADSVKGRFTISRDNAKNTVYLQMNSLKPEDTAVYYCAAESLSQGIWYDYWGQGTQVTVSS
  polyreactivity (PSR sort gate): high polyreactivity

## QVQLVESGGGLVQAGGSLRLSCAASGSTFVTYAMGWYRQAPGKEREFVAAISRTGGSTYYADSVKGRFTISRDNAKYTVYLQMNSLKPEDSAVYYCNRVGRGYSHNQYDLGYWGQGTLVTVSS
  polyreactivity (PSR sort gate): low polyreactivity

## QVQLVESGGGLVQAGGSLRLSCAASGSTFLWNAMGWYRPAPGKERELVAAISYSGGSTYYADSVKGRFTISRDNAKNTVYLQMNSLKPEVTAVYYCAKEWFYDPYPPGYDYWGQGTQVTVSS
  polyreactivity (PSR sort gate): low polyreactivity

## QVQLVESGGGLVQAGGSLRLSCAASGRTFKLYAMGWYRQAPGKERELVATIRRSGTRTYADSVKGRFTISRDNAKNTVYLQMNSLKPEDTAVYYCAATTYGYVYHRYDYWGQGTQVTVSS
  polyreactivity (PSR sort gate): high polyreactivity

## QVQLVESGGGLVQAGGSLRLSCAASGITFYDNAMGWYRQAPGKERELVAAIRSGDSTYYADSVKGRFTISRDNAKNTVYLQMNSLKPEDTAVYYCAARTPWVYYWRFYYWGQGTQVTVSS
  polyreactivity (PSR sort gate): high polyreactivity

## QVQLVESGGGLVQAGGSLRLSCAASGSTRRYVMAWYRQAPGKEMELVAAISYSGGSTYYADSVKGRFTISRDNAKNTVYLQMNSLKPEETAVYYCAADGYSGQYGGHMGYWGQGTQVTVSS
  polyreactivity (PSR sort gate): high polyreactivity

## QVQLVESGGGLVQAGGSLRLSCAASGLIFGWNAMGWYRQAPGKERELVAAISSGGSTNYADSVKGRFTISRDNAKNTVYLQMNRLKPEDNAVYYCATRNGYSGTYGYWGQGTQVTVSS
  polyreactivity (PSR sort gate): low polyreactivity

## QVQLVESGGGLVQAGGSLRLSCAASGSIFGYYAMGWYRQAPGKERELVAAISWSDGSTYYADSVKGRFTISRDNAKNTVYLQMNMLKPEDTAVYYCAARFTPYITSDDGHYDYWGQGTQVTVSS
  polyreactivity (PSR sort gate): low polyreactivity

## QVQLVESGGGLVQAGGSLRLSCAASGYTFYYYAMGWYRQAPGKERELVAAISWSGGSTYYADSVKGRVTISRDNAKNTVYLQMNSLKPEDTAVYYCAAGVDLYYDLYDYEYWGQGTQVTVSS
  polyreactivity (PSR sort gate): low polyreactivity

## QVQLVESGGGLVQAGGSLRLSCAASGRTLGYNAMGWYRQAPGKARELVASINSGVSTNYADSVQGRFTISRDNAKNTVYLQMNSLKPEDTAVYYCAAEKYGRGAGREGWESDYWGQGTQVTVSS
  polyreactivity (PSR sort gate): low polyreactivity

## QVQIVESGGGLVQEGGSLRLRCAASGFTFGYYRMGWYRQAPGKERELVAAISRSAGSTYYADSVKGRFTISRDNAKNTVYLQMNSLKPEDTAVYYCNAAVFRTEGGYSTFNYWGQGSQVTVSS
  polyreactivity (PSR sort gate): high polyreactivity

## QVQLVESGGGLVQAGGSLRLSCAASGRTFFRYVMGWYRQAPGKERELVAAISRSGGSTYYADSVKGRFTISRDNAKNTVYLQMNSLKPEDTAVYYCNTVARSTVVPTEFDYWGQGTQVTVSS
  polyreactivity (PSR sort gate): high polyreactivity

## QVQLVESGGGLVQAGGSLRLSCAASGSIFITYAMGWYRQAPGKERELVAAITWRGGSTYYADSVKGRFTISRDNAKNTVYLQMNSLKPEDTAVYYCAAEDFYYRSQYRYWYDYWGQGTQVTVSS
  polyreactivity (PSR sort gate): high polyreactivity

## QVQLVESGGGLVQAGGSLRLSCAASGRTLTGYDMGWYRQAPGKERELVAAITWSGGSTFYADSVKGRFTMSRYNAKNTVYLQMNSLKPEDTAVYYCNVTDVTEPSLIYGYYWGQGTQVTVSS
  polyreactivity (PSR sort gate): low polyreactivity

## QVQLVESGGGLVQAGGSLRLSCAASGRIFSFNAMGWYRQAPGKERELVAAISWSTGSTFYADSVKGRFTISRDNAKNTVYLQMNSLKPEDTAVYYCAREYYYRRGFFLRGYWGQGTQVTVSS
  polyreactivity (PSR sort gate): high polyreactivity

## QVQLVESGGGLVQAGGSLRLSCAASGSTFGWYTMGWYRQAPGKERELVAAMTSRGTRTSYADSVKGRFTISRDNAKNTVYLQMNSLKPEDTAVYYCAARVFRGLGEYYWGQGTQVTVSS
  polyreactivity (PSR sort gate): high polyreactivity

## QVQLVESGGGLVQAGGSLRLSCAASGSTFIPNAMGWYRQAPGKERELVAAISTGGSTNYADSVKGRFTISRDNAKNTVYLQMNSLKPEDTAVYYCNDRRGYFNPGRRFYYWGQGTQVTVSS
  polyreactivity (PSR sort gate): low polyreactivity

## QVQLVDSGGGLVQAGGSLRLSCAASGNTFSGNTMGWYRQAPGKERELVAAIRFTGGSTTYADSVKGRFTISRDNAKNTVYLQMNSLKPEDTAVYYCNTDWVSFRSIYHEYDYWGQGTQVTVSS
  polyreactivity (PSR sort gate): low polyreactivity

## QVQLVESGGGLVQAGGSLRLSCAASGFNFSDYDMGWYRQAPGKERELVAAITYSGCSTYYADSVKGRFTISRDNAKKTVYLQMNSLKPEDTAVYYCAAVKSRYAEAVDYYYWGQGTQVTVSS
  polyreactivity (PSR sort gate): low polyreactivity

## QVQLVESGGGLVQAGGSLRLSCAASGRTSKGNTMGWYRQAPGKEREFVATISRSGGSTYYADSVKGRFTISRDNAKNTVYLQMNSLKPEDTAVYYCAARISRQRSYSRDYWGQGTQVTVSS
  polyreactivity (PSR sort gate): high polyreactivity

## QVQLVESGGGLVQAGGSLRLSCAASGSTFSKYTMGWYRQAPGKERELVAAISRSGGRTYYADSVKGRFTISRDNAKNTVYLQMNSLKPEDTAVYYCATVVYVFGYSSPMYYWGQGTQVTVSS
  polyreactivity (PSR sort gate): high polyreactivity

## QVQLVESGGGLVQAGGSLRLSCAASGLTFYQNAMGWYRQAPGKEREFVASITRRGGRTYYADSVKGRFTISRDNAKNTVYLQMNSLKPEDTAVYYCAATFPQYQAIKEDYWGQGTQVTVSP
  polyreactivity (PSR sort gate): high polyreactivity

## QVKLVESGGGLVQAGGSLRLSCAASGSTFFIYTKGLYRQAPGKEREFVAAISWTGGRTYYADSVKGRFTISRDNAKNTVYLQMNSLKPEDTAVYYCAARYKYSSYDYWGQGTQVTVSS
  polyreactivity (PSR sort gate): high polyreactivity

## QVQLVESGGGLVQAGGSLRLSCAASGSILVNNAMGWYRQAPGKERELVAAISRSGTRTFYADSVKGRFTISRENAKNTVYLQMNSLKPEDTAVYYCAVDYYYRMDYWGQGTQVTVSS
  polyreactivity (PSR sort gate): high polyreactivity

## QVRLVESGGGLVKAGGSLRLSSAASGSTFWSYAMGCYRQATGKERELVAAISWSGDSTYYADSVKGRFTISRDNAKNTVYLQMNSLKPEDTAVYYCAADYVGGSYEYEYWGQGTQVTVSS
  polyreactivity (PSR sort gate): low polyreactivity

## QVQLVESGGGLVQAGGSLRLSCAASGSTFRTNTRGWYRQAPGKERELVAAITKSGGSTYYADSVKGRFTISRDNAKNTVYLQMNSLKPEDTAVYYCAARVLYRSGLRGDYWGQGTQVTVSS
  polyreactivity (PSR sort gate): high polyreactivity

## QVQLVESGGGLVQAGGSLRLSCAASGRIFSFNAMGWYRQAPGKERELVAGITDSGGSTYYADSVKGRFTISRDNAKNTVYFQMNSLKPEDTAVYYCNAEWPYSRVREYFYAYDYWGQGTQVTVSS
  polyreactivity (PSR sort gate): low polyreactivity

## QVQLVESGGGLVQAGGSLRLSCAASGRIFRSYAMGWYRQAPGKERELVAAISGSGGSTYYADSVKGRFTISRDNAKNTVYLQMNSLKPEDTAVYYCNRARGASYHGQSDYWGQGTQVTVSS
  polyreactivity (PSR sort gate): high polyreactivity

## QVHLVESGGGLVQAGGSLRLSCAASGSIFDEYAMGWYRQAPGKERELVAAITSGGSTNYADSVKGRFTISRDNAKNTVYLQMNSLKPEDTAVYYCNVARQAKGMGYWGQGTEVTVSS
  polyreactivity (PSR sort gate): low polyreactivity

## QVQLVESGGGLVQAGGSLRLSCAASGLTFSIYAMGWYRQEPGKERELVARITWNSGSTYYADSVKGRFTISRDNAKNTVYLQMNSLKPEDTAVYYCNARFWGSGVGDLWEGVRYDYWGQGTQVTVSS
  polyreactivity (PSR sort gate): high polyreactivity

## QVQLVESGGGLVQAGGSLRLSCAASGRIFGLYAMGWYRQAPGKERELVAAINRTGNTNYADSVKGRFTISRDNAKNTVYLQMNSLKPEDTAVYYCAARFPYWRRYDYWGQGTQVTVSS
  polyreactivity (PSR sort gate): high polyreactivity

## QVQLVESGGGLDQAGGSLRLSCAASGRTFSYYAMGWYRQAPVKERELVAGISWRGTSTYADSVKGRFTISRDNAKNTFYLQMNRLKPEHTAVYYCNAEVTGHYSYHKFDYWGQGTQVTVSS
  polyreactivity (PSR sort gate): low polyreactivity

## QVQLVESGGGLVQAGGSLRLSCAASGRIFGKNDMGWYRQAPGKEREFVATIDWSGGSTYYADSVKGRFTISRDNAKNTVYLQMNSLKPEDTAVYYCAASGWNRYLFDYWGQGTQVTVSS
  polyreactivity (PSR sort gate): low polyreactivity

## QVQLVESGGGLVQAGGSLRLSCAASGSIFYDKDSGWYRQAPGKERELFAAITSTGGSTYYADSVKGRFTISRDHAKNTVYLQMNSLKPEDTAVYDCNTPTYLYWGFNTYDYWGQGTQFTVSS
  polyreactivity (PSR sort gate): low polyreactivity

## QVQLVESGGGLVQAGGSLRLSCAASGSTFHRNAMGWYRQAPGKERELVAAISFSGGRTYYADSVKGRFTISRDNAKNTVYLQMNSLKPEDTAVYYCAAVTASPGSYPDDYWGQGTQVTVSS
  polyreactivity (PSR sort gate): low polyreactivity

## QVQLVESGGVLVQAGGSLRLSCAASGNTFWLNAMGWYRQSPGKERELVDAITYTDGSTYADSVKGRFTISRDNAKNTVYLQMNSLKPEDTAVYYCAVANPSPYEWIAYYYWGQGTQVTVSS
  polyreactivity (PSR sort gate): low polyreactivity

— the nanobody polyreactivity screen of Harvey et al. (2022)
